*1 amine or outer side, *2 acyl side, *3 side chain or, on linkers, in order; H or OH if unused. Bridges are numbered along the chain shown (N, C = ends). Where no end group is shown, it is not given here. [ ]: non-standard residue; d: D form. UBX = ((2S,3R)-3-amino-2-hydroxy-4-phenylbutanoyl)-L-leucine, CC(C)C[C@H](NC(=O)[C@@H](O)[C@@H](Cc1ccccc1)N[*:1])C(=O)[*:2]; TDSPA = (R)-2-amino-3-(tert-butyldisulfanyl)propanoic acid, CC(C)(C)SSC[C@H](N[*:1])C(=O)[*:2]; m‑xylylene = m-xylylene thioether bridge between Cys; Trp(7-aza) = N[C@@H](Cc1c[nH]c2ncccc12)C(=O)O; NMePhe(4-F) = CN[C@@H](Cc1ccc(F)cc1)C(=O)O; mXylylene = c1cc(C[*:1])cc(C[*:2])c1; NMeY = CN[C@@H](Cc1ccc(O)cc1)C(=O)O; Glutaryl = O=C(CCCC(=O)[*:2])[*:1]; PEG4 = NCCOCCOCCOCCOCCC(=O)O; Phg = N[C@H](C(=O)O)c1ccccc1; Tle = CC(C)(C)[C@H](N)C(=O)O; NMeS = CN[C@@H](CO)C(=O)O; NMeA = CN[C@@H](C)C(=O)O; Pra = C#CC[C@H](N)C(=O)O; Nva = CCC[C@H](N)C(=O)O; Ahp = NCCCCCCC(=O)O; Sar = CNCC(=O)O

B1: R4112 (peptide)
peptide: Ac-CY[Tle]KH[NMeA][Phg][Trp(7-aza)]Y[NMePhe(4-F)][Sar]C-NH2
modifications: linker 1-12 via mXylylene
SMILES: CC(=O)N[C@H]1CSCc2cccc(c2)CSC[C@@H](C(N)=O)NC(=O)CN(C)C(=O)[C@H](Cc2ccc(F)cc2)N(C)C(=O)[C@H](Cc2ccc(O)cc2)NC(=O)[C@H](Cc2c[nH]c3ncccc23)NC(=O)[C@H](c2ccccc2)NC(=O)[C@H](C)N(C)C(=O)[C@H](Cc2c[nH]cn2)NC(=O)[C@H](CCCCN)NC(=O)[C@H](C(C)(C)C)NC(=O)[C@H](Cc2ccc(O)cc2)NC1=O
B2: R4117 (peptide)
peptide: Ac-[Nva]C[NMeY][Tle]KH[NMeA][Phg][Trp(7-aza)]Y[NMePhe(4-F)][Sar]C-NH2
modifications: linker 2-13 via mXylylene
SMILES: CCC[C@H](NC(C)=O)C(=O)N[C@H]1CSCc2cccc(c2)CSC[C@@H](C(N)=O)NC(=O)CN(C)C(=O)[C@H](Cc2ccc(F)cc2)N(C)C(=O)[C@H](Cc2ccc(O)cc2)NC(=O)[C@H](Cc2c[nH]c3ncccc23)NC(=O)[C@H](c2ccccc2)NC(=O)[C@H](C)N(C)C(=O)[C@H](Cc2c[nH]cn2)NC(=O)[C@H](CCCCN)NC(=O)[C@H](C(C)(C)C)NC(=O)[C@H](Cc2ccc(O)cc2)N(C)C1=O
B3: R4106 (peptide)
peptide: [UBX][Ahp][Nva]CY[Tle]KH[NMeA][Phg][Trp(7-aza)]Y[NMePhe(4-F)][Sar]C-NH2
modifications: linker 4-15 via mXylylene; N-terminus assumed
SMILES: CCC[C@H](NC(=O)CCCCCCNC(=O)[C@H](CC(C)C)NC(=O)[C@@H](O)[C@H](N)Cc1ccccc1)C(=O)N[C@H]1CSCc2cccc(c2)CSC[C@@H](C(N)=O)NC(=O)CN(C)C(=O)[C@H](Cc2ccc(F)cc2)N(C)C(=O)[C@H](Cc2ccc(O)cc2)NC(=O)[C@H](Cc2c[nH]c3ncccc23)NC(=O)[C@H](c2ccccc2)NC(=O)[C@H](C)N(C)C(=O)[C@H](Cc2c[nH]cn2)NC(=O)[C@H](CCCCN)NC(=O)[C@H](C(C)(C)C)NC(=O)[C@H](Cc2ccc(O)cc2)NC1=O
B4: R4118 (peptide)
peptide: Ac-[Nva]CY[Tle]KH[NMeA][Phg][Trp(7-aza)]Y[NMePhe(4-F)][NMeS]C-NH2
modifications: linker 2-13 via mXylylene
SMILES: CCC[C@H](NC(C)=O)C(=O)N[C@H]1CSCc2cccc(c2)CSC[C@@H](C(N)=O)NC(=O)[C@H](CO)N(C)C(=O)[C@H](Cc2ccc(F)cc2)N(C)C(=O)[C@H](Cc2ccc(O)cc2)NC(=O)[C@H](Cc2c[nH]c3ncccc23)NC(=O)[C@H](c2ccccc2)NC(=O)[C@H](C)N(C)C(=O)[C@H](Cc2c[nH]cn2)NC(=O)[C@H](CCCCN)NC(=O)[C@H](C(C)(C)C)NC(=O)[C@H](Cc2ccc(O)cc2)NC1=O
B5: R4103 (peptide)
peptide: Glutaryl-[Nva]CY[Tle]KH[NMeA][Phg][Trp(7-aza)]Y[NMePhe(4-F)][Sar]C-NH2
modifications: linker 2-13 via mXylylene
SMILES: CCC[C@H](NC(=O)CCCC(=O)O)C(=O)N[C@H]1CSCc2cccc(c2)CSC[C@@H](C(N)=O)NC(=O)CN(C)C(=O)[C@H](Cc2ccc(F)cc2)N(C)C(=O)[C@H](Cc2ccc(O)cc2)NC(=O)[C@H](Cc2c[nH]c3ncccc23)NC(=O)[C@H](c2ccccc2)NC(=O)[C@H](C)N(C)C(=O)[C@H](Cc2c[nH]cn2)NC(=O)[C@H](CCCCN)NC(=O)[C@H](C(C)(C)C)NC(=O)[C@H](Cc2ccc(O)cc2)NC1=O
B6: R4002 (peptide)
peptide: [Nva]CY[Tle]KH[NMeA][Phg][Trp(7-aza)]Y[NMePhe(4-F)][Sar]C-NH2
modifications: linker 2-13 via mXylylene; N-terminus assumed
SMILES: CCC[C@H](N)C(=O)N[C@H]1CSCc2cccc(c2)CSC[C@@H](C(N)=O)NC(=O)CN(C)C(=O)[C@H](Cc2ccc(F)cc2)N(C)C(=O)[C@H](Cc2ccc(O)cc2)NC(=O)[C@H](Cc2c[nH]c3ncccc23)NC(=O)[C@H](c2ccccc2)NC(=O)[C@H](C)N(C)C(=O)[C@H](Cc2c[nH]cn2)NC(=O)[C@H](CCCCN)NC(=O)[C@H](C(C)(C)C)NC(=O)[C@H](Cc2ccc(O)cc2)NC1=O
B7: R4104 (peptide)
peptide: Ac-SCY[Tle]KH[NMeA][Phg][Trp(7-aza)]Y[NMePhe(4-F)][Sar]C-NH2
modifications: linker 2-13 via mXylylene
SMILES: CC(=O)N[C@@H](CO)C(=O)N[C@H]1CSCc2cccc(c2)CSC[C@@H](C(N)=O)NC(=O)CN(C)C(=O)[C@H](Cc2ccc(F)cc2)N(C)C(=O)[C@H](Cc2ccc(O)cc2)NC(=O)[C@H](Cc2c[nH]c3ncccc23)NC(=O)[C@H](c2ccccc2)NC(=O)[C@H](C)N(C)C(=O)[C@H](Cc2c[nH]cn2)NC(=O)[C@H](CCCCN)NC(=O)[C@H](C(C)(C)C)NC(=O)[C@H](Cc2ccc(O)cc2)NC1=O
B8: R4101 (peptide)
peptide: Ac-[Nva]CY[Tle]KH[NMeA][Phg][Trp(7-aza)]Y[NMePhe(4-F)][NMeA]C-NH2
modifications: linker 2-13 via mXylylene
SMILES: CCC[C@H](NC(C)=O)C(=O)N[C@H]1CSCc2cccc(c2)CSC[C@@H](C(N)=O)NC(=O)[C@H](C)N(C)C(=O)[C@H](Cc2ccc(F)cc2)N(C)C(=O)[C@H](Cc2ccc(O)cc2)NC(=O)[C@H](Cc2c[nH]c3ncccc23)NC(=O)[C@H](c2ccccc2)NC(=O)[C@H](C)N(C)C(=O)[C@H](Cc2c[nH]cn2)NC(=O)[C@H](CCCCN)NC(=O)[C@H](C(C)(C)C)NC(=O)[C@H](Cc2ccc(O)cc2)NC1=O
B9: R4115 (peptide)
peptide: Ac-[Nva]CY[Tle]KH[NMeA][Phg]WY[NMePhe(4-F)][Sar]C-NH2
modifications: linker 2-13 via mXylylene
SMILES: CCC[C@H](NC(C)=O)C(=O)N[C@H]1CSCc2cccc(c2)CSC[C@@H](C(N)=O)NC(=O)CN(C)C(=O)[C@H](Cc2ccc(F)cc2)N(C)C(=O)[C@H](Cc2ccc(O)cc2)NC(=O)[C@H](Cc2c[nH]c3ccccc23)NC(=O)[C@H](c2ccccc2)NC(=O)[C@H](C)N(C)C(=O)[C@H](Cc2c[nH]cn2)NC(=O)[C@H](CCCCN)NC(=O)[C@H](C(C)(C)C)NC(=O)[C@H](Cc2ccc(O)cc2)NC1=O
B10: R4107 (peptide)
peptide: Ac-[Nva]CY[Tle]KH[NMeA][Phg][Trp(7-aza)]Y[NMePhe(4-F)][Sar]C[PEG4][Pra]-NH2
modifications: linker 2-13 via mXylylene
SMILES: C#CC[C@H](NC(=O)CCOCCOCCOCCOCCNC(=O)[C@@H]1CSCc2cccc(c2)CSC[C@H](NC(=O)[C@H](CCC)NC(C)=O)C(=O)N[C@@H](Cc2ccc(O)cc2)C(=O)N[C@@H](C(C)(C)C)C(=O)N[C@@H](CCCCN)C(=O)N[C@@H](Cc2c[nH]cn2)C(=O)N(C)[C@@H](C)C(=O)N[C@@H](c2ccccc2)C(=O)N[C@@H](Cc2c[nH]c3ncccc23)C(=O)N[C@@H](Cc2ccc(O)cc2)C(=O)N(C)[C@@H](Cc2ccc(F)cc2)C(=O)N(C)CC(=O)N1)C(N)=O

The target in the assay is GMPPNP-loaded H-Ras or GTP-loaded K-Ras. The assay is described as follows: FP competition, displacement of probe R4007 from Ras.
With B1, the IC50 (commonly the concentration that gives 50% inhibition) was 21.4 nM.
With [Nva]CY[Tle]KH[NMeA][Phg][Trp(7-aza)]Y[NMePhe(4-F)][Sar]C[dS]KG[TDSPA]VIM (linker 2-13 via mXylylene) [R4113], the IC50 was found to be 32.7 nM.
The same measure for Ac-[Nva]CY[Tle]KH[NMeA][Phg][Trp(7-aza)]Y[NMePhe(4-F)][Sar]C (linker 2-13 via mXylylene) [R4108]: 9.45 nM.
For [Nva]CY[Tle]KH[NMeA][Phg][Trp(7-aza)]Y[NMePhe(4-F)][Sar]C[dS]KGCVIM (linker 2-13 via mXylylene) [R4114] the value was 32.7 nM; for B2, 48.3 nM.
For B3 the value was 8.38 nM; for B4, 51.5 nM.
For the molecule B5, the 50% inhibitory concentration (IC50) was 2 nM.
The same measure for Ac-[Nva]CY[Tle]KH[NMeA][Phg][Trp(7-aza)]Y[NMePhe(4-F)][Sar]C[dS][dA]GCVIM (linker 2-13 via mXylylene) [R4102]: 1.82 nM; for Ac-[Nva]CY[Tle]KH[NMeA][Phg][Trp(7-aza)]Y[NMePhe(4-F)][Sar]C[dS]KGCVIM (linker 2-13 via mXylylene) [R4105]: 3.31 nM.
The same measure for B6: 7.92 nM; for B7: 3.29 nM; for Ac-[Nva]C[Tle]YHT[Trp(7-aza)][Trp(7-aza)]E[Trp(7-aza)][Nva]HC-NH2 (linker 2-13 via m‑xylylene) [R4100]: 1.06 nM.
On to B8, for which the IC50 was 1.45 nM.
The same measure for B9: 34.1 nM.
For the molecule Ac-[Nva]CY[Tle]KH[NMeA][Phg][Trp(7-aza)]Y[NMePhe(4-F)][Sar]CGCGVGIM (linker 2-13 via mXylylene) [R4119], the IC50 was 64.4 nM.
For Ac-[Nva]CY[Tle]KH[NMeA][Phg][Trp(7-aza)]Y[NMePhe(4-F)][Sar]C[dS][dA]K[TDSPA]VIM (linker 2-13 via mXylylene) [R4111] the value was 20.8 nM.
On to Ac-[Nva]CY[Tle]KH[NMeA][Phg][Trp(7-aza)]Y[NMePhe(4-F)][Sar]C[dS]KG[TDSPA]VIM (linker 2-13 via mXylylene) [R4109], for which the IC50 worked out at 14.2 nM.
For the molecule B10, the IC50 was 9.42 nM.
The same measure for Ac-[Nva]CY[Tle]KH[NMeA][Phg][Trp(7-aza)]Y[NMePhe(4-F)][Sar]CGCMSCKCVLS-NH2 (linker 2-13 via mXylylene; cysteine pairing not given here) [R4116]: 35.7 nM.
The molecule Ac-[Nva]CY[Tle]KH[NMeA][Phg][Trp(7-aza)]Y[NMePhe(4-F)][Sar]C[dS]KG[TDSPA]VVL (linker 2-13 via mXylylene) [R4110] had an IC50 of 16.4 nM.

(Values after patent US20190119358A1.)
